Reference: publication PMC11430399, “Cold-induced degradation of core clock proteins implements temperature compensation in the Arabidopsis circadian clock” (Science Advances, 2024)

Molecular target: T1, LOV KELCH PROTEIN 2 fused with GFP (LKP2-GFP) (Arabidopsis thaliana, UniProt Q8W420 1-611)
T1 construct: LKP2, Arabidopsis thaliana, AT2G18915; Own promoter-driven genomic LKP2; source: Arabidopsis 35Sp:PRR5-F/lkp2-cr3/LKP2-GFP transgenic seedlings, in protein extract
Test: co-IP; LKP2-GFP immunoprecipitated with anti-GFP antibodies from 35Sp:PRR5-F/lkp2-cr3/LKP2-GFP seedlings kept at 12° or 28°C for 24 hours with MG132; PRR5-FLAG detected by Western blot; three biological replicates
Details: partners not purified

T1 sequence (Q8W420 whole entry, the tested form may be a part): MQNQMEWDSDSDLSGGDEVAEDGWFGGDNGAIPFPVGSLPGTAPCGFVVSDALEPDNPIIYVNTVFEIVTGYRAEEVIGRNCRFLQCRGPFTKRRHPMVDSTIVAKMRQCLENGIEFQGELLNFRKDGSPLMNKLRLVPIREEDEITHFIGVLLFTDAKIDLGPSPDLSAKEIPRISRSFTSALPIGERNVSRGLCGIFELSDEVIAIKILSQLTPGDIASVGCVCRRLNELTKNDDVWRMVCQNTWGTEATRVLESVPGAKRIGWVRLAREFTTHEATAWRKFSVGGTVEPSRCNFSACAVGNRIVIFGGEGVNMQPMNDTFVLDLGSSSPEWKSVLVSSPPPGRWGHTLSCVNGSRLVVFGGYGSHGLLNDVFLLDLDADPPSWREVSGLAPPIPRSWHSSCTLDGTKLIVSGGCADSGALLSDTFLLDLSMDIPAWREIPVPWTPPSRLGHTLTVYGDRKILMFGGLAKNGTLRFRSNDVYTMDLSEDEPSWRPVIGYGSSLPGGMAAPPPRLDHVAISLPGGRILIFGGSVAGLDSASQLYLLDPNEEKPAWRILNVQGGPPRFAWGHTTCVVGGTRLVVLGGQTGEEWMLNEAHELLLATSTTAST

B1: PSEUDO-RESPONSE REGULATOR 5 with a C-terminal triple FLAG tag (PRR5-FLAG) (natural protein, Arabidopsis thaliana, UniProt Q6LA42 1-558, looked up)
chain: MTSSEEVVEVTVVKAPEAGGGKLSRRKIRKKDAGVDGLVKWERFLPKIALRVLLVEADDSTRQIIAALLRKCSYRVAAVPDGLKAWEMLKGKPESVDLILTEVDLPSISGYALLTLIMEHDICKNIPVIMMSTQDSVNTVYKCMLKGAADYLVKPLRRNELRNLWQHVWRRQTSLAPDSFPWNESVGQQKAEGASANNSNGKRDDHVVSGNGGDAQSSCTRPEMEGESADVEVSARDAVQMECAKSQFNETRLLANELQSKQAEAIDFMGASFRRTGRRNREESVAQYESRIELDLSLRRPNASENQSSGDRPSLHPSSASAFTRYVHRPLQTQCSASPVVTDQRKNVAASQDDNIVLMNQYNTSEPPPNAPRRNDTSFYTGADSPGPPFSNQLNSWPGQSSYPTPTPINNIQFRDPNTAYTSAMAPASLSPSPSSVSPHEYSSMFHPFNSKPEGLQDRDCSMDVDERRYVSSATEHSAIGNHIDQLIEKKNEDGYSLSVGKIQQSLQREAALTKFRMKRKDRCYEKKVRYESRKKLAEQRPRIKGQFVRQVQSTQAP
notes: PRR5, Arabidopsis thaliana; source: Arabidopsis 35Sp:PRR5-F transgenic seedlings (also 35Sp:PRR5-F/lkp2-cr3/LKP2-GFP), in protein extract; not shown: 3xFLAG, C-terminal, kept
fold of co-immunoprecipitated PRR5-FLAG at 12°C against 28°C: 15.9 fold
